Tested on: Escherichia coli TOP10
Assay: shrunken log2 fold change of peptide-encoding DNA abundance (4.5 h post-induction vs induction); higher = less antimicrobial activity (less host growth inhibition)
Conditions: time post-induction: 4.5 h; library: site-saturation at positions 5, 18, 19, 20
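Also: peptides expressed intracellularly from a pBAD plasmid library in pooled LB shake-flask culture, induced with 0.3% L-arabinose, DNA abundance read by NGS, three biological replicates, DESeq2 with apeglm shrinkage.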

Sequence | shrunken log2 fold change
RRIRHRPPRLPRPRPRPPPVPRP | 0.658
RRIRHRPPRLPRPRPRPPQHPRP | -0.177
RRIRHRPPRLPRPRPRPPRKPRP | -0.0559
RRIRHRPPRLPRPRPRPPSCPRP | 0.604
RRIRHRPPRLPRPRPRPPSGPRP | 0.771
RRIRHRPPRLPRPRPRPPSQPRP | -0.232
RRIRHRPPRLPRPRPRPPTFPRP | -0.0769
RRIRHRPPRLPRPRPRPPVYPRP | 0.118
RRIRHRPPRLPRPRPRPPWLPRP | 0.242
RRIRHRPPRLPRPRPRPPYTPRP | -0.266
RRIRHRPPRLPRPRPRPQAHPRP | -0.0538
RRIRHRPPRLPRPRPRPQALPRP | -0.278
RRIRHRPPRLPRPRPRPQCDPRP | -0.13
RRIRHRPPRLPRPRPRPQCHPRP | -0.202
RRIRHRPPRLPRPRPRPQDCPRP | -0.01
RRIRHRPPRLPRPRPRPQDFPRP | 0.0261
RRIRHRPPRLPRPRPRPQEIPRP | -0.19
RRIRHRPPRLPRPRPRPQFFPRP | -0.619
RRIRHRPPRLPRPRPRPQFRPRP | -0.0324
RRIRHRPPRLPRPRPRPQGPPRP | -0.235
RRIRHRPPRLPRPRPRPQHCPRP | -0.503
RRIRHRPPRLPRPRPRPQIGPRP | -0.0135

Sequence | shrunken log2 fold change
RRIRHRPPRLPRPRPRPQKRPRP | -0.225
RRIRHRPPRLPRPRPRPQKYPRP | -0.383
RRIRHRPPRLPRPRPRPQLDPRP | 0.153
RRIRHRPPRLPRPRPRPQMNPRP | -0.312
RRIRHRPPRLPRPRPRPQPCPRP | 0.0971
RRIRHRPPRLPRPRPRPQQGPRP | -0.14
RRIRHRPPRLPRPRPRPQQNPRP | -0.0705
RRIRHRPPRLPRPRPRPQRHPRP | 0.0629
RRIRHRPPRLPRPRPRPQRVPRP | -0.139
RRIRHRPPRLPRPRPRPQSMPRP | -0.156
RRIRHRPPRLPRPRPRPQVNPRP | -0.273
RRIRHRPPRLPRPRPRPQVRPRP | -0.134
RRIRHRPPRLPRPRPRPQVVPRP | -0.101
RRIRHRPPRLPRPRPRPRAPPRP | 0.741
RRIRHRPPRLPRPRPRPRAVPRP | 0.518
RRIRHRPPRLPRPRPRPRCAPRP | 0.189
RRIRHRPPRLPRPRPRPRCEPRP | 0.149
RRIRHRPPRLPRPRPRPRCPPRP | 0.169
RRIRHRPPRLPRPRPRPRCRPRP | 0.615
RRIRHRPPRLPRPRPRPRDIPRP | 0.115
RRIRHRPPRLPRPRPRPRDRPRP | 0.0898
RRIRHRPPRLPRPRPRPREDPRP | -0.0018

Sequence | shrunken log2 fold change
RRIRHRPPRLPRPRPRPRHEPRP | 0.099
RRIRHRPPRLPRPRPRPRHHPRP | -0.0639
RRIRHRPPRLPRPRPRPRIAPRP | 0.0721
RRIRHRPPRLPRPRPRPRKAPRP | -0.0445
RRIRHRPPRLPRPRPRPRLEPRP | 0.0466
RRIRHRPPRLPRPRPRPRMKPRP | -0.223
RRIRHRPPRLPRPRPRPRNFPRP | 0.134
RRIRHRPPRLPRPRPRPRNRPRP | 0.672
RRIRHRPPRLPRPRPRPRPPPRP | 1.15
RRIRHRPPRLPRPRPRPRRVPRP | 0.36
RRIRHRPPRLPRPRPRPRRWPRP | -0.00291
RRIRHRPPRLPRPRPRPRSFPRP | -0.0488
RRIRHRPPRLPRPRPRPRTKPRP | 0.204
RRIRHRPPRLPRPRPRPRTLPRP | -0.137
RRIRHRPPRLPRPRPRPRTYPRP | -0.749
RRIRHRPPRLPRPRPRPSCGPRP | -0.304
RRIRHRPPRLPRPRPRPSEEPRP | -0.00149
RRIRHRPPRLPRPRPRPSELPRP | 0.0169
RRIRHRPPRLPRPRPRPSFTPRP | -0.632
RRIRHRPPRLPRPRPRPSGRPRP | 0.0298
RRIRHRPPRLPRPRPRPSHRPRP | -0.548
RRIRHRPPRLPRPRPRPSHTPRP | -0.248

Sequence | shrunken log2 fold change
RRIRHRPPRLPRPRPRPSICPRP | 0.0424
RRIRHRPPRLPRPRPRPSIDPRP | -0.617
RRIRHRPPRLPRPRPRPSIEPRP | -0.37
RRIRHRPPRLPRPRPRPSIGPRP | -0.335
RRIRHRPPRLPRPRPRPSIQPRP | -0.344
RRIRHRPPRLPRPRPRPSITPRP | -0.569
RRIRHRPPRLPRPRPRPSKHPRP | -0.177
RRIRHRPPRLPRPRPRPSLDPRP | -0.22
RRIRHRPPRLPRPRPRPSLEPRP | 0.0392
RRIRHRPPRLPRPRPRPSMDPRP | -0.828
RRIRHRPPRLPRPRPRPSMMPRP | -0.407
RRIRHRPPRLPRPRPRPSNHPRP | -0.461
RRIRHRPPRLPRPRPRPSNVPRP | -0.00144
RRIRHRPPRLPRPRPRPSPHPRP | -0.39
RRIRHRPPRLPRPRPRPSQFPRP | -0.247
RRIRHRPPRLPRPRPRPSQKPRP | -0.0338
RRIRHRPPRLPRPRPRPSQTPRP | 0.067
RRIRHRPPRLPRPRPRPSRRPRP | -0.105
RRIRHRPPRLPRPRPRPSSLPRP | -0.153
RRIRHRPPRLPRPRPRPSSMPRP | -0.474
RRIRHRPPRLPRPRPRPSTYPRP | -0.202
RRIRHRPPRLPRPRPRPSVAPRP | -0.156

Sequence | shrunken log2 fold change
RRIRHRPPRLPRPRPRPSWIPRP | -0.171
RRIRHRPPRLPRPRPRPTAIPRP | -0.183
RRIRHRPPRLPRPRPRPTATPRP | 0.39
RRIRHRPPRLPRPRPRPTCGPRP | 0.0685
RRIRHRPPRLPRPRPRPTDHPRP | -0.487
RRIRHRPPRLPRPRPRPTDLPRP | -0.154
RRIRHRPPRLPRPRPRPTFKPRP | -0.537
RRIRHRPPRLPRPRPRPTGPPRP | 0.149
RRIRHRPPRLPRPRPRPTHSPRP | -0.192
RRIRHRPPRLPRPRPRPTIFPRP | -0.0675
RRIRHRPPRLPRPRPRPTIGPRP | -0.0227
RRIRHRPPRLPRPRPRPTKFPRP | -0.138
RRIRHRPPRLPRPRPRPTKNPRP | -0.312
RRIRHRPPRLPRPRPRPTLLPRP | -0.281
RRIRHRPPRLPRPRPRPTPCPRP | 0.00473
RRIRHRPPRLPRPRPRPTPEPRP | -0.0453
RRIRHRPPRLPRPRPRPTPIPRP | 0.226
RRIRHRPPRLPRPRPRPTPLPRP | 0.243
RRIRHRPPRLPRPRPRPTQVPRP | 0.172
RRIRHRPPRLPRPRPRPTQWPRP | 0.0126
RRIRHRPPRLPRPRPRPTSMPRP | -0.0792

From the supplement of paper PMC9112550, “Optimization of the antimicrobial peptide Bac7 by deep mutational scanning” (BMC Biology, 2022)
